The target in this experiment is T1, TAMRA-Aβ1-42 (Homo sapiens, UniProt P05067).
T1 construct: fluorophore-labeled Aβ (TAMRA-Aβ1-42)
Put plainly: Fluorescence anisotropy of Aβ binding to AuNP surface. Conditions: intrinsic, free peptide. The text has this: Fluorescence anisotropy also confirmed Aβ binding to AuNP surface. This technique reports on the change in the molecular rotation of the dye attached to the free TAMRA-Aβ1-42 peptide and when it binds to something larger than itself under polarized light. The steady-state anisotropy (r) is derived from the following equation in which r=(IVV−GIVH)/(IVV+2GIVH), where IVV and IVH are the fluorescence intensities, the subscripts indicate the orientation of the excitation and emission polarizer's, and G=IHV/IHH is the wavelength dependent sensitivity of the instrument. In a typical experiment the intrinsic anisotropy of TAMRA-Aβ1-42 (ravg=0.12) increases in the presence of Au-SOA-PC-HT (ravg=0.35) (FIG. 18). The resulting change in anisotropy (Δr=0.23) is due to a large change in the hydrodynamic radius (size) of the small TAMRA-Aβ1-42 when it binds to the much larger Au-SOA-PC-HT nanoparticles. […] Note that Cu^II pre-incubated with TAMRA-Aβ1-42 when added to Au-SOA-PC-HT has the same 0.11 change in anisotropy (FIG. 18). Possible explanations for the additional increase in r include metal ion reassembly of peptides bound to the membrane or bridging interactions between the Au-SOA-PC-HT-TAMRA-Aβ1-42 species. Alternatively, metals could arrange TAMRA-Aβ1-42 within the membrane bilayer to slow its molecular rotation. […]
On the technique in general: Fluorescence polarisation rises when a labelled molecule tumbles more slowly, as on binding a larger partner.

T1 sequence (P05067 672-713): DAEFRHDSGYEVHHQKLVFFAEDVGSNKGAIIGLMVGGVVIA

Regarding TAMRA-Aβ1-42: fluorophore-labeled Aβ, the “steady-state anisotropy ravg of TAMRA-Aβ1-42” value turned out to be 0.12.

These data come from patent US11324837B2, “Hybrid membrane-coated nanoparticle composites and methods of making and using the same” (Portland State University, priority 2016, dated 2022).
